Assay results: US20260209325A1 (SCHOLAR ROCK, published 2026)

Columns and labels:
[1] = target: T1, recombinant human latent myostatin (human, UniProt O14793 24-375, biotinylated (in the Octet pH assay only)); assay: cell-based or functional assay
human pro-myostatin [2] = target: T2, human pro-myostatin (human, UniProt O14793 24-375, biotinylated (in the SPR assay)); assay: Ab KD, summary Table 11; method and antigen not stated there
T2 construct: Disulfide-linked homodimer; also called proGDF8 (human)

[3] = target: T1, recombinant human latent myostatin; assay: BLI (Octet Red384): streptavidin biosensors loaded with biotinylated human latent myostatin, antibody association 300 s, dissociation in PBS at pH 7.4 or pH 5.5
Procedure: Binding was performed at pH 7.4 and dissociation at pH 5.5 in an Octet Red384@assay. Streptavidin biosensors were baselined in 1x kinetics buffer (KB) (Sartorius) for one minute, then loaded with 100 nM biotinylated human latent myostatin for five minutes, followed by another baseline step of one minute in 1x KB. Binding of test antibodies was performed for five minutes and then dissociation was performed in PBS at either pH 7.4 or pH 5.5 for five minutes. Analysis was performed using a partial fit, in which full dissociation was projected. Kd at pH 5.5 was divided by Kd at pH 7.4 to calculate pH sensitivity.

human pro-myostatin [4] = target: T2, human pro-myostatin; assay: plate binding assay, absorbance at 450 nm, antibody titrated 100 to about 0.002 nM, panel 'Human Pure Pro-GDF-8' (method not described in the text)
[5] = target: T1, recombinant human latent myostatin; assay: cell-based or functional assay; remark: listed apart in the source
human pro-myostatin [6] = target: T2, human pro-myostatin; assay: cell-based or functional assay
murine pro-myostatin [7] = target: T3, murine pro-myostatin (mouse, UniProt O08689 25-376, biotinylated (in the SPR assay)); assay: SPR Biacore 8K, biotin-antigen captured
T3 construct: also called proGDF8 (mouse); mouse pro-myostatin

cyno pro-myostatin [8] = target: T4, cyno pro-myostatin (cynomolgus monkey, Biotinylated for capture in the SPR assay (site not stated). The native form is a disulfide-linked homodimer, partly furin-cleaved; one chain is given.); assay: SPR Biacore 8K, biotin-antigen captured
T4 construct: also called proGDF8 (cynomolgus); cynomolgus monkey pro-myostatin

human pro-myostatin [9] = target: T2, human pro-myostatin; assay: SPR Biacore 8K, biotin-antigen captured
cyno pro-myostatin [10] = target: T4, cyno pro-myostatin; assay: plate binding assay, absorbance at 450 nm, antibody titrated 100 to about 0.002 nM, panel 'Cyno Pure Pro-GDF-8' (method not described in the text)
mouse GDF-11 = mouse GDF-11 (mouse, UniProt Q9Z1W4 297-405, limits assumed); assay: plate binding assay, OD 450 nm, one antibody concentration that is not given, on Mu-GDF-11 (method not described in the text)
Sequence of mouse GDF-11 (Q9Z1W4 297-405 limits assumed): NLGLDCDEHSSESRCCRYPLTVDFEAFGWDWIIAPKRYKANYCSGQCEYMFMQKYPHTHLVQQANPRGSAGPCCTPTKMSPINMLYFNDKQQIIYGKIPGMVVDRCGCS

human pro-myostatin [11] = target: T2, human pro-myostatin; assay: plate binding assay, OD 450 nm, antibody titrated 0.0003 to 100 nM, panel 'Hu-Pro-GDF-8 Plate 3' (method not described in the text)
murine pro-myostatin [12] = target: T3, murine pro-myostatin; assay: plate binding assay, OD 450 nm, antibody titrated 0.0003 to 100 nM, panel 'Mu-Pro-GDF-8 Plate 3' (method not described in the text)
human GDF-11 = human GDF-11 (human, UniProt O95390 299-407, limits assumed); assay: plate binding assay, OD 450 nm, one antibody concentration that is not given, on Hu-GDF-11 (method not described in the text)
Sequence of human GDF-11 (O95390 299-407 limits assumed): as the sequence (Q9Z1W4 297-405 limits assumed) above

cyno pro-myostatin [13] = target: T4, cyno pro-myostatin; assay: plate binding assay, OD 450 nm, antibody titrated 0.0003 to 100 nM, panel 'Cyno-Pro-GDF-8 Plate 3' (method not described in the text)

Binder | IC50 (nM) Latent + mTLL2 [5] | IC50 (nM) Pro + Furin (human pro-myostatin [6]) | Kd (murine pro-myostatin [7]) | koff (murine pro-myostatin [7]) | kon (murine pro-myostatin [7]) | Kd (cyno pro-myostatin [8]) | koff (cyno pro-myostatin [8]) | kon (cyno pro-myostatin [8]) | Kd (human pro-myostatin [9]) | koff (human pro-myostatin [9]) | kon (human pro-myostatin [9]) | binding result (mouse GDF-11) | binding result (human GDF-11) | EC50 (read off the curve) (human pro-myostatin [11]) | EC50 (read off the curve) (murine pro-myostatin [12]) | EC50 (read off the curve) (cyno pro-myostatin [13]) | other results
Ab132 (antibody, human IgG4 S228P, kappa, V domains shown) VH: EVQLVESGGGLVQPGGSLRLSCAASGFTFSSYGMSWVRQAPGKGLELVASFTGSGGTYYPDSVKGRFTISRDNAKNSLYLQMNSLRAEDTAVYYCARDLLIRFLEWSHYYGMDVWGQGTTVTVSS VL: DIVMTQSPLSLPVTPGEPASISCRSSQSLLHSSGHNFLHWYLQKPGQSPQLLIYEVSNRVSGVPDRFSGSGSGTDFTLKISRVEAEDVGVYYCQQQTQYPPTFGGGTKVEIKR | – | – | – | – | – | – | – | – | – | – | – | – | – | – | – | – | mTLL2 IC50 [1]: 0.144 nM; Kd (human pro-myostatin [2]): 0.926 nM; fold difference in off-rate (Kd at pH 5.5 / Kd at pH 7.4) [3]: 24 fold
Ab106 (antibody, human IgG4 S228P, kappa, V domains shown) VH: EVQLVESGGGLVQPGGSLRLSCAASGSAFSSYGMSWVRQAPGKGLELVASINSNGGSTYYPDSVKGRFTISRDNAKNSLYLQMNSLRAEDTAVYYCARDLLVRFLEWAGYYGMDVWGQGTTVTVSS VL: DIVMTQSPLSLPVTPGEPASISCRSSQSLLHSSGHNFLHWYLQKPGQSPQLLIYEVSNRVSGVPDRFSGSGSGTDFTLKISRVEAEDVGVYYCMQQTQYPPTFGGGTKVEIKR | 0.163 nM | 0.233 nM | 0.162 nM | 0.000317 s⁻¹ | 1.96e+06 M⁻¹ s⁻¹ | 0.152 nM | 0.000291 s⁻¹ | 1.91e+06 M⁻¹ s⁻¹ | 0.112 nM | 0.000224 s⁻¹ | 2e+06 M⁻¹ s⁻¹ | – | – | – | – | – | EC50 (read off the curve) (human pro-myostatin [4]): ~0.2 nM; EC50 (read off the curve) (cyno pro-myostatin [10]): ~0.2 nM
Ab126 (antibody, human IgG4 S228P, kappa, V domains shown) VH: EVQLVESGGGLVQPGGSLRLSCTASSFTFSNYAMDWVRQAPGKGLEWVSYISSDASTTYYADSVKGRFTISRDNAKNTLYLQMNSLRAEDTAVYYCARDGGYNPGIFDYWGQGTLVTVSS VL: DIQMTQSPSSLSASVGDRVTITCQASQSIGRWLNWYQQKPGKAPKLLIYDASILQTGVPSRFSGSGSGTDFTFTISSLQPEDIATYYCQQSFTTPPLTFGGGTKVEIKR | – | – | – | – | – | – | – | – | – | – | – | no binding | no binding | – | – | – | binding result (human pro-myostatin [11]): binds; binding result (murine pro-myostatin [12]): binds
Ab122 (antibody, human IgG4 S228P, kappa, V domains shown, The light chain is printed ending ...NRGE, without the last C) VH: QVTLRESGPALVKPTQTLTLTCTVSGGSLSSGGSYVNWIRQPPGKALEWLAMTDWDADNIVYNSALKSRLTISKDTSKNQVVLTMTNMDPVDTATYYCAHRQNVDSYGYWGDAFDIWGQGTMVTVSS VL: DIVMTQSPDSLAVSLGERATINCKSSQSVLYSADNKNYLAWYQQKPGQPPKLLIYDASSLENGVPDRFSGSGSGTDFTLTISSLQAEDVAVYYCQQGHLFPYSFGGGTKVEIKR | – | – | – | – | – | – | – | – | – | – | – | – | – | ~0.5 nM | ~0.6 nM | ~0.2 nM | –
Ab127 (antibody, human IgG4 S228P, kappa, V domains shown) VH: EVQLVESGGGLVQPGGSLRLSCTASGFTFGSYPMDWVRQAPGKGLEWVSYISGRGDVTYYADSVKGRFTISRDNAKNTLYLQMNSLRAEDTAVYYCAKVQSPSELLWFGELLPVDYWGQGTLVTVSS VL: DIQMTQSPSSLSASVGDRVTITCQASQVIKTWLNWYQQKPGKAPKLLIYDASNLQRGVPSRFSGSGSGTDFTFTISSLQPEDIATYYCQQSASTPITFGGGTKVEIKR | 0.14 nM | 0.195 nM | 0.325 nM | 0.000265 s⁻¹ | 815000 M⁻¹ s⁻¹ | 0.327 nM | 0.000269 s⁻¹ | 821000 M⁻¹ s⁻¹ | 0.262 nM | 0.000213 s⁻¹ | 813000 M⁻¹ s⁻¹ | no binding | no binding | ~0.4 nM | ~0.6 nM | ~0.3 nM | –
